Measured values: publication PMC7585203

Target: FAM-LIG1(118–130)K126me2 peptide (human)
Assay: fluorescence polarisation; FAM-labelled peptide with GST-tagged domains or MBP-tagged full-length UHRF1; as described in ref. 4, plotted as change in anisotropy

A ratio of its dissociation constant to that of the UHRF1 TTD of 70 fold was found for “GST-tagged chromodomain Y-like protein isoform 2 (CDYL1b) chromodomain (domain or fragment)” in this work.
